# Assay results: article PMC3331940
# Target: Cdk4/cyclin D1 complex (UniProt P11802)
row,maximal extent of Cdk4 inhibition at saturating concentrations [%],Substance
1,98,"p27-KID^(Y74E, Y89F) (domain or fragment)"
2,80,"p27-KID^(pY74, pY88, Y89F) (domain or fragment)"
3,95,"p27-KID^(pY88, Y89F) (domain or fragment)"
